# Measurements taken from IntAct's records for PubMed 21720390.
# B1: NAD-dependent protein deacetylase sirtuin-3, mitochondrial (Homo sapiens), Q9NTG7 (parent)
# chain: MAFWGWRAAAALRLWGRVVERVEAGGGVGPFQACGCRLVLGGRDDVSAGLRGSHGARGEPLDPARPLQRPPRPEVPRAFRRQPRAAAPSFFFSSIKGGRRSISFSVGASSVVGSGGSSDKGKLSLQDVAELIRARACQRVVVMVGAGISTPSGIPDFRSPGSGLYSNLQQYDLPYPEAIFELPFFFHNPKPFFTLAKELYPGNYKPNVTHYFLRLLHDKGLLLRLYTQNIDGLERVSGIPASKLVEAHGTFASATCTVCQRPFPGEDIRADVMADRVPRCPVCTGVVKPDIVFFGEPLPQRFLLHVVDFPMADLLLILGTSLEVEPFASLTEAVRSSVPRLLINRDLVGPLAWHPRSRDVAQLGDVVHGVESLVELLGWTEEMRDLVQRETGKLDGPDK
# Variants of: B1
# Settings: with aldh2_human ALDH2, P05091
# aldh2_human ALDH2, P05091, sequence (P05091 whole entry): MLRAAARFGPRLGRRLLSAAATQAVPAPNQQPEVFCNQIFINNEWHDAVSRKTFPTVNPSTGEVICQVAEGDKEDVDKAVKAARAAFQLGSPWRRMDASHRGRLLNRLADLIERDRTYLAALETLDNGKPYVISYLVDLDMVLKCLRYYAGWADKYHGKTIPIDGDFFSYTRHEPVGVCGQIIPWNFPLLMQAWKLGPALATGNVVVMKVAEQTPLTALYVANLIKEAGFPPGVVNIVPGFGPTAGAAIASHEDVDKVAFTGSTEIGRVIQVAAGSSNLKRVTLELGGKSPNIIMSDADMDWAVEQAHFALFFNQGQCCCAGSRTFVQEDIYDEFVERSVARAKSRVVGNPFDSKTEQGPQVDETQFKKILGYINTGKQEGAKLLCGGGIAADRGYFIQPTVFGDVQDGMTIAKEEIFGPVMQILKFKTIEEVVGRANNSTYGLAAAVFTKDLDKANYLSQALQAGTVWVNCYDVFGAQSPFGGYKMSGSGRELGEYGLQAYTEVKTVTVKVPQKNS
row,Variant,effect of a mutation on the interaction
1,H248Y,decreasing interaction
